The values below come from patent US20080181886A1, “Polypeptides That Bind Baff And/Or April” (Genentech, Inc., priority 2004, published 2008).

In one test the test system is NF-κB. Description: NF-κB ELAM-luciferase reporter assay in co-transfected 293T cells. To be noted: 293T cells co-transfected with ligand and receptor; 20 hr after transfection. Type of test: cell-based, Human. Here is the method:
Human 293T cells were co-transfected with the indicated amounts of expression plasmids along with 250 ng of ELAM-luciferase reporter gene plasmid and 25 ng pRL-TK. 20 hr after transfection, reporter gene activity was determined with the dual-luciferase reporter assay system (Promega).

The target in test [1] is T1, APRIL (Mus musculus, UniProt Q9D777).
T1 construct: made in house
T1 sequence (Q9D777 105-241): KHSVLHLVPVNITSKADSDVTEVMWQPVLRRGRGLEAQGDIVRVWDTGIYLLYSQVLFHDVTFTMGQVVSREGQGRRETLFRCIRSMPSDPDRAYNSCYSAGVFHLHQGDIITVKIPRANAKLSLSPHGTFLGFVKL
Description: Competitive surface plasmon resonance, APRIL binding to immobilized BCMA-Fc. The arrangement: species or system murine. To be noted: competition with immobilized BCMA-Fc. The text has this: (§1) Surface plasmon resonance (SPR) measurements on a BIAcore 3000 instrument (Pharmacia Biosensor) were used to measure binding affinities of receptors to immobilized APRIL and BAFF by competition binding. […] In these experiments, receptors in solution competed for binding of ligand in solution at room temperature with immobilized BCMA-Fc. BCMA-Fc was coupled to flow cell 2 of a CM4 sensor chip, using the amine coupling protocol supplied by the manufacturer, at a high density (4500 resonance units) so that the initial rate of binding was linearly dependent on the concentration of free ligand. In all experiments flow cell 1 was ethanolamine-blocked and used as the reference cell. Washing with 10 mM HCl regenerated flow cells between sample injections. In order to determine the ligand concentration necessary to obtain the optimal for competition experiments, a preliminary binding study was performed for each ligand where two-fold dilutions of the ligand ranging from 400 nM to 6.25 nM were injected over the BCMA-Fc surface. […] The IC50 values were calculated using a four-parameter curve fit (y=((m1−m4)/(1+(m0/m3)̂m2))+m4) of the initial binding rates for the receptor/control (Vi/Vo) as a function of receptor concentration.

For test [2], the target named is T2, BAFF (Homo sapiens, UniProt Q9Y275).
T2 construct: made in house
In words: Competitive surface plasmon resonance, BAFF binding to immobilized BCMA-Fc. To be noted: competition with immobilized BCMA-Fc.
Excerpt: as §1

Test [3] deals with T2, BAFF. Description: Competitive ELISA, BAFF. As to conditions: data not shown. It is filed as binding.
Test [4] has as its target T1, APRIL. In words: Competitive ELISA, APRIL. To be noted: data not shown. It is filed as binding, murine.

T2 sequence (Q9Y275 82-285 limits assumed): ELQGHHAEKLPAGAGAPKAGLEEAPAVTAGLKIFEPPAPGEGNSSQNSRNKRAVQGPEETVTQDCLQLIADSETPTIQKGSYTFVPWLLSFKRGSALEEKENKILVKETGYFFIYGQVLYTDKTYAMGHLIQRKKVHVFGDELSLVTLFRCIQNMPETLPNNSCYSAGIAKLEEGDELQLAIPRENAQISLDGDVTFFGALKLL

B1: shortTACI: TACI splice variant: first 20 residues, one tryptophan in place of the 47 residues encoding CRD1, then the rest of the protein (protein)
chain: MSGLGRSRRGGRSRVDQEERWSLSCRKEQGKFYDHLLRDCISCASICGQHPKQCAYFCENKLRSPVNLPPELRRQRSGEVENNSDNSGRYQGLEHRGSEASPALPGLKLSADQVALVYSTLGLCLCAVLCCFLVAVACFLKKRGDPCSCQPRSRPRQSPAKSSQDHAMEAGSPVSTSPEPVETCSFCFPECRAPTQESAVTPGTPDPTCAGRWGCHTRTTVLQPCPHIPDSGLGIVCVPAQEGGPGA
As for B1, in the test on NF-κB, the “NF-κB activation by APRIL or BAFF” value is recorded as “capable of mediating NF-κB activation”.

B2: TACI_d1d2: residues 21-116 of the TACI extracellular domain (both CRDs) with a C-terminal His-tag (protein, UniProt O14836 21-116, looked up, fragment)
chain: FPQGLWTGVAMRSCPEEQYWDPLLGTCMSCKTICNHQSQRTCAAFCRSLSCRKEQGKFYDHLLRDCISCASICGQHPKQCAYFCENKLRSPVNLPP
modifications: extracellular domain C-terminal His-tag
notes: residues 21-116 of the TACI extracellular domain (both CRDs) with a C-terminal His-tag
Turning to B2, the “affinity for APRIL, comparison in words” value with APRIL [1] is recorded as “did not confer additional affinity”. Besides, the “affinity for BAFF, comparison in words” value with BAFF [2] was “did not confer additional affinity”. Besides, the “binding to BAFF, in words” value with BAFF [3] is reported as “no improvement in binding”. For the same molecule, the “binding to APRIL, in words” value in the test with APRIL [4] is listed as “no improvement in binding”.
